In paper PMC6889417, “Derepression of LOXL4 inhibits liver cancer growth by reactivating compromised p53” (Cell Death and Differentiation, 2019):

Target: wild-type p53, endogenous (human (endogenous in SK-Hep1, HepG2), UniProt P04637 1-393)
Assay: cell-based or functional assay

Sequence of wild-type p53, endogenous (P04637 whole entry): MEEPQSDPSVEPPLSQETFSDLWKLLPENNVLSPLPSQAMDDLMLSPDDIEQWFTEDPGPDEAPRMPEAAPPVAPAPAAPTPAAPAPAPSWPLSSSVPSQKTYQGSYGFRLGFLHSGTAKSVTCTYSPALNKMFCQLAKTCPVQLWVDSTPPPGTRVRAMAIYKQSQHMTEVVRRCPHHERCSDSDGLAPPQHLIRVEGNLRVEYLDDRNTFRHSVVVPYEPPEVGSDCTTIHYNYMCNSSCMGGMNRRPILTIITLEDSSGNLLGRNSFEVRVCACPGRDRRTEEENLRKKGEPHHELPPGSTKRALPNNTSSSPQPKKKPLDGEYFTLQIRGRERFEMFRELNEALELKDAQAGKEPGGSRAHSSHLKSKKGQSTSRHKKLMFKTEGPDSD

B1: lysyl oxidase-like 4 (LOXL4), endogenous (natural protein, UniProt Q96JB6 25-756, looked up)
chain: QSLGTTKLRLVGPESKPEEGRLEVLHQGQWGTVCDDNFAIQEATVACRQLGFEAALTWAHSAKYGQGEGPIWLDNVRCVGTESSLDQCGSNGWGVSDCSHSEDVGVICHPRRHRGYLSETVSNALGPQGRRLEEVRLKPILASAKQHSPVTEGAVEVKYEGHWRQVCDQGWTMNNSRVVCGMLGFPSEVPVDSHYYRKVWDLKMRDPKSRLKSLTNKNSFWIHQVTCLGTEPHMANCQVQVAPARGKLRPACPGGMHAVVSCVAGPHFRPPKTKPQRKGSWAEEPRVRLRSGAQVGEGRVEVLMNRQWGTVCDHRWNLISASVVCRQLGFGSAREALFGARLGQGLGPIHLSEVRCRGYERTLSDCPALEGSQNGCQHENDAAVRCNVPNMGFQNQVRLAGGRIPEEGLLEVQVEVNGVPRWGSVCSENWGLTEAMVACRQLGLGFAIHAYKETWFWSGTPRAQEVVMSGVRCSGTELALQQCQRHGPVHCSHGGGRFLAGVSCMDSAPDLVMNAQLVQETAYLEDRPLSQLYCAHEENCLSKSADHMDWPYGYRRLLRFSTQIYNLGRTDFRPKTGRDSWVWHQCHRHYHSIEVFTHYDLLTLNGSKVAEGHKASFCLEDTNCPTGLQRRYACANFGEQGVTVGCWDTYRHDIDCQWVDITDVGPGNYIFQVIVNPHYEVAESDFSNNMLQCRCKYDGHRVWLHNCHTGNSYPANAELSLEQEQRLRNNLI
How did the “expression of the p53 target genes PIG3 and BAX (quantitative real time PCR) after 5-aza-CR (5 μM, 16 h) in WT cells against 2DR cells” value turn out when B1 was run?
Its value is > 10 fold.
